Laboratory results taken from US11180770B2, “HPPD variants and methods of use” (BASF Agricultural Solutions Seed US LLC, priority 2017, dated 2021).

Tested on: HPPD polypeptides
Test: coupled HPPD activity assay: turnover and residual turnover in crude extracts
Assay type: biochemical, Pseudomonas fluorescens
Conditions: for Residual turnover [%]: 100 μM Cmpd. 1, signal change with inhibitor divided by signal change without inhibitor; for Turnover: absence of Cmpd. 1, kinetic changes in absorbance (OD) at 320 nm, 30 min; for Turnover / Residual turnover: high substrate concentration; for Residual turnover: presence of 100 μM Cmpd. 1, changes in absorbance (OD) at 320 nm
Method: The activity of HPPD polypeptides was determined in absence or presence of HPPD inhibitors using the coupled HPPD activity assay (FIG. 1).
For the determination of the residual activity, the apparent kinetic constant (kapp) of the determined substrate conversion was measured as kinetic changes in absorbance (OD) at 320 nm in a coupled assay, in that homogentisate (HGA) formed by HPPD from HPP is directly converted into the well absorbing molecule maleylacetoacetate (MAA) by a second enzyme homogentisate dioxygenase (HGD), applied in excess uniformly in all assays (see FIG. 1). The measurements were performed in 384 micro titer plates (Greiner Bio-One GmbH, Frickenhausen, Germany) by plate readers (Tecan infinite M1000 or M1000PRO, Tecan, Männedorf, Switzerland). The kcat/kM ratio of an enzymatic activity is proportional to the apparent kinetic constant kapp and is proportional to kcat/kM*[E] ([E]=enzyme concentration). […] As both kapp measurements in the presence and absence of inhibitor were performed by use of the identical enzyme sample, crude or purified, and thereby at the same enzyme concentration, the enzyme concentration eliminates from the calculation of residual activity and the ratio of both kapp directly indicates the change of kM due to the inhibition.
The assay solution used for determination of residual activities in raw HPPD polypeptide samples was composed by 200 mM sodium phosphate (Merck, Darmstadt, Germany, pH 7.0), 5 mM MgCl2 (Merck, Darmstadt, Germany), 20 mM ascorbate (Sigma-Aldrich, St. Louis, USA), 1 mM DTT (Sigma-Aldrich, St. Louis, USA), 0.1% Pluronic F-68 (Sigma-Aldrich, St. Louis, USA), 40 μM FeSO4 (Sigma-Aldrich, St. Louis, USA), about 8 mg/ml purified HGD and 500 μM HPP from a 1 M stock solution in DMSO (Sigma-Aldrich, St. Louis, USA) and equilibrated for 20 min on ice. For every HPPD polypeptide sample two assays were performed in quadruplets, whereby 5 μl of HPPD polypeptide sample were mixed firstly with 5 μl buffer (1×BugBuster®; (Merck, Darmstadt, Germany); in 140 mM Tris, pH 7.8, with 1:25000 diluted BNase®; Qiagen, Hilden, Germany)) or 5 μl inhibitor diluted in the same buffer from a 0.1 M stock solution in DMSO (200 μM resulting in 100 μM in the HPPD polypeptide/inhibitor sample) in the reference and inhibition assay, respectively, and subsequently with 10 μl assay solution. The change in absorbance at 320 nm was followed in 1 min intervals for 30 min. The kapp values were calculated as signal slope over time in the early phase of the kinetic reaction, usually for the first 5-10 minutes of the measurements. Additionally and according to the calculated residual activity, the total conversion, i.e. the absolute change in signal, in the 30 min timeframe was monitored as measure of turnover, and a residual turnover was calculated by dividing the change in signal in the presence of inhibitor by the change in signal in the reference sample without inhibitor.
Residual turnover were determined according to Example 3 by measuring total change in signal in the presence and absence of Cmpd. 1 (2-chloro-3-(methylsulfanyl)-N-(1-methyl-1H-tetrazol-5-yl)-4-(trifluoromethyl)benzamide). For each mutant HPPD polypeptide, the total change in signal without HPPD inhibitor herbicides served for normalization of the total change in signal in the presence of the herbicide.

Row | Molecule | turnover / residual turnover in the presence of Cmpd. 1 compared with a reference HPPD polypeptide, in words (Cmpd. 1, comparison with the reference or parent polypeptide) | Residual turnover [%] | Turnover | Residual turnover
1 | SEQ ID NO: 67: mutant PfHPPD: 213K 268A 270S 315R 335P 336H 337S 340V 344Q 345M (protein, mutant HPPD polypeptide, mutant PfHPPD: 213K 268A 270S 315R 335P 336H 337S 340V 344Q 345M) MADLYENPMGLMGFEFIEFASPTPGTLEPIFEIMGFTKVATHRSKNVHLYRQGEINLILNNEPNSIASYFAAEHGPSVCGMAFRVKDSQKAYNRALELGAQPIHIDTGPMELNLPAIKGIGGAPLYLIDRFGEGSSIYDIDFVYLEGVERNPVGAGLKVIDHLTHNVYRGRMVYWANFYEKLFNFREARYFDIKGEYTGLTSKAMSAPDGMIKIPLNEESSKGAGQIEEFLMQFNGEGIQHVAFLTDDLVKTWDALKKIGMRFMTAPADSYYEMLEGRLPDHGEPVDQLQARGILLDGSSVEGDKRLLLQIFSERLMGPVFFEFIQRKGDDGFGPHSFKVLFEQMERDQVRRGVLTAD | increase significantly the turnover and the residual turnover | – | – | –
2 | 47 (protein, mutant HPPD polypeptide) MADLYENPMGLMGFEFIEFASPTPGTLEPIFEIMGFTKVATHRSKNVHLYRQGEINLILNNEPNSIASYFAAEHGPSVCGMAFRVKDSQKAYNRALELGAQPIHIDTGPMELNLPAIKGIGGAPLYLIDRFGEGSSIYDIDFVYLEGVERNPVGAGLKVIDHLTHNVYRGRMVYWANFYEKLFNFREARYFDIKGEYTGLTSKAMSAPDGMIRIPLNEESSKGAGQIEEFLMQFNGEGIQHVAFLTDDLVKTWDALKKIGMRFMTAPADNYYEMLEGRLPDHGEPVDQLQARGILLDGSSVEGDKRLLLQIFSETLMGPVFFEFIQRKGDDGFGPHSFKVLFEQMERDQVRRGVLTAD | – | 53 | 0.314 | 0.166
3 | 49 (protein, mutant HPPD polypeptide) MADLYENPMGLMGFEFIEFASPTPGTLEPIFEIMGFTKVATHRSKNVHLYRQGEINLILNNEPNSIASYFAAEHGPSVCGMAFRVKDSQKAYNRALELGAQPIHIDTGPMELNLPAIKGIGGAPLYLIDRFGEGSSIYDIDFVYLEGVERNPVGAGLKVIDHLTHNVYRGRMVYWANFYEKLFNFREARYFDIKGEYTGLTSKAMSAPDGMIRIPLNEESSKGAGQIEEFLMQFNGEGIQHVAFLTDDLVKTWDALKKIGMRFMTAPPDNYYEMLEGRLPDHGEPVDQLQARGILLDGSSVEGDKRLLLQIFSETLMGPVFFEFIQRKGDDGFGPHSFKVLFEQMERDQVRRGVLTAD | – | 33 | 0.316 | 0.103
4 | 48 (protein, mutant HPPD polypeptide) MADLYENPMGLMGFEFIEFASPTPGTLEPIFEIMGFTKVATHRSKNVHLYRQGEINLILNNEPNSIASYFAAEHGPSVCGMAFRVKDSQKAYNRALELGAQPIHIDTGPMELNLPAIKGIGGAPLYLIDRFGEGSSIYDIDFVYLEGVERNPVGAGLKVIDHLTHNVYRGRMVYWANFYEKLFNFREARYFDIKGEYTGLTSKAMSAPDGMIRIPLNEESSKGAGQIEEFLMQFNGEGIQHVAFLTDDLVKTWDALKKIGMRFMTAPGDNYYEMLEGRLPDHGEPVDQLQARGILLDGSSVEGDKRLLLQIFSETLMGPVFFEFIQRKGDDGFGPHSFKVLFEQMERDQVRRGVLTAD | – | 52 | 0.225 | 0.117
5 | 46 (protein, mutant HPPD polypeptide) MADLYENPMGLMGFEFIEFASPTPGTLEPIFEIMGFTKVATHRSKNVHLYRQGEINLILNNEPNSIASYFAAEHGPSVCGMAFRVKDSQKAYNRALELGAQPIHIDTGPMELNLPAIKGIGGAPLYLIDRFGEGSSIYDIDFVYLEGVERNPVGAGLKVIDHLTHNVYRGRMVYWANFYEKLFNFREARYFDIKGEYTGLTSKAMSAPDGMIRIPLNEESSKGAGQIEEFLMQFNGEGIQHVAFLTDDLVKTWDALKKIGMRFMTAPGDNYYEMLEGRLPDHGEPVDQLQARGILLDGSSVEGDKRLLLQIFSETLMGPVFFEFIQRKGDDGFGPHSFKVLFEQVERDQVRRGVLTAD | – | 55 | 0.179 | 0.098
